In publication PMC7721900, “Assembly properties of bacterial tubulin homolog FtsZ regulated by the positive regulator protein ZipA and ZapA from Pseudomonas aeruginosa” (Scientific Reports, 2020):
Where a chain is given by its changes, count along the chain named. Numbers in names are those of the source.

Key:
Details in all cases: both partners purified
[1] = biological target: T1, FtsZ from Pseudomonas aeruginosa (P. aeruginosa, UniProt P47204 1-394); assay: negative stain electron microscopy; MMK buffer (50 mM MES, 100 mM KAc, 5 mM MgAc, pH 6.5), GTP, 1-5 min at room temperature; 5 µM PaFtsZ alone, or with 10 µM ZipA or ZapA
T1 construct: FtsZ, Pseudomonas aeruginosa; cloned in pET15b at NdeI/BamHI; Forms protofilaments and bundles with GTP; also called PaFtsZ; source: E. coli BL21 (pET15b), purified (Talon column, thrombin, source Q 10/10)
T1 sequence (looked up): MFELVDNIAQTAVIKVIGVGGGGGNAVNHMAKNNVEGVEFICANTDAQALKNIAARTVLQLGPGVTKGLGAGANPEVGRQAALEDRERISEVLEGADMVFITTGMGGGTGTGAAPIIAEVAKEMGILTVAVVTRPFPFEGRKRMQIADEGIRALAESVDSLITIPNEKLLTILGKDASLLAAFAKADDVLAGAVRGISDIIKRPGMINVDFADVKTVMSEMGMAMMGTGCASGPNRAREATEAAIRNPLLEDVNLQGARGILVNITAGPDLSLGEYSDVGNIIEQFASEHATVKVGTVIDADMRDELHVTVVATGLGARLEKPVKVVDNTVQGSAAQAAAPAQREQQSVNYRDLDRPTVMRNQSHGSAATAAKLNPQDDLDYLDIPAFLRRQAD

[2] = biological target: T2, FtsZ from Escherichia coli (E. coli, UniProt P0A9A6 1-383); assay: Bodipy fluorescence quenching assay of assembly; HMK buffer, room temperature; 7 µM EcFtsZ (less than 10% Bodipy labeled T151C/Y222W with wild type), alone or with 10 µM ZapA or ZipA
T2 construct: FtsZ, Escherichia coli, wild type; in pET11b; also called EcFtsZ; wild type FtsZ; source: bacterially expressed (pET11b), purified (30% ammonium sulfate, source Q 10/10)
T2 sequence (looked up): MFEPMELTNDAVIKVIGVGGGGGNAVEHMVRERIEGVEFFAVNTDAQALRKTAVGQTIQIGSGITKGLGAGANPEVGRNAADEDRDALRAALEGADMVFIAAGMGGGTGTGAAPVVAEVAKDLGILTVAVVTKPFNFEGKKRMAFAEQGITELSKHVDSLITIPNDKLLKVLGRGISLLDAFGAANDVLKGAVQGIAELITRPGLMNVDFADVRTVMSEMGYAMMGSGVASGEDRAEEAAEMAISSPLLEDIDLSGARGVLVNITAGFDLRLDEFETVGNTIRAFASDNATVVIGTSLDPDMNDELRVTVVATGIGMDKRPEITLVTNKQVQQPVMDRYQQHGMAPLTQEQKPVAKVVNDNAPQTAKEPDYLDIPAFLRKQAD

[3] = biological target: T2, FtsZ from Escherichia coli; assay: light scattering; HMK buffer, room temperature, 340 nm; 7 µM EcFtsZ plus 10 µM EcZapA
[4] = biological target: T3, EcFtsZ-F268C labeled with fluorescein (donor) or tetramethylrhodamine (acceptor) (E. coli, UniProt P0A9A6 1-383, F268C, single cysteine labeled separately with Fluorescein 5-maleimide (donor) or Tetramethylrhodamine 5-maleimide (acceptor)); assay: FRET or BRET; HMK buffer; donor- and acceptor-labeled EcFtsZ-F268C polymerized separately for 5 min, alone or with 10 µM ZipA or ZapA, then mixed; decrease of donor fluorescence, single exponential fit; 7 µM EcFtsZ; subunit exchange at steady state
T3 construct: FtsZ, Escherichia coli, single cysteine mutant F268C (printed as L268C in the results); in pET11b; also called EcFtsZ-L268C; source: bacterially expressed (pET11b), purified (30% ammonium sulfate, source Q 10/10)
T3 sequence (looked up): T2 sequence (looked up) with F268C

[5] = biological target: T1, FtsZ from Pseudomonas aeruginosa; assay: negative stain electron microscopy; HMK buffer (50 mM HEPES, 100 mM KAc, 5 mM MgAc, pH 7.5), GTP, 1-5 min at room temperature; 3 or 5 µM PaFtsZ alone, or 5 µM PaFtsZ with 10 µM ZipA or ZapA

B1: N-terminal truncated PaZipA (26-289) (domain or fragment, P. aeruginosa, UniProt Q9I3I5 26-289, looked up)
chain: RRMRGGKGKLKFKLDRSFANLPDDDGDSAELLGPARVVEHREPSFDEQDLPSVSAREAKERKGGKRQEEPRQGDLDLDEGLALEADPSDAAETVEPRKGKSKGRKEKEREKAPAVAAEPAPVDEVLIINVIARDESGFKGPALLQNILESGLRFGDMDIFHRHESMAGNGEILFSMANAVKPGTFDLDDIDNFSTRAVSFFLGLPGPRHPKQAFDVMVAAARKLAHELNGELKDEQRSVLTAQTIEHYRQRIIDHERRSLMQKR
notes: ZipA, Pseudomonas aeruginosa, residues 26-289; N-terminally truncated to remove the transmembrane domain; Removal of the His tag is told only for PaFtsZ; also called ZipA from Pseudomonas aeruginosa; source: E. coli BL21 (pET15b), purified (Talon column)
binding result [1]: binds

B2: EcFtsZ-T151C/Y222W labeled with Bodipy at Cys151 (natural protein, E. coli, UniProt P0A9A6 1-383, looked up)
chain: T2 sequence (looked up) with T151C, Y222W
modifications: Bodipy-FL N-(2-aminoethyl)maleimide on Cys 151
notes: FtsZ, Escherichia coli, double mutant T151C/Y222W; in pET11b; Used mixed with a ninefold excess of unlabeled wild-type EcFtsZ; also called Bodipy labeled FtsZ; labeled EcFtsZ; source: bacterially expressed (pET11b), purified (30% ammonium sulfate, source Q 10/10)
binding result [2]: binds

B3: ZapA from Escherichia coli (natural protein, E. coli, UniProt P0ADS2 1-109, looked up)
chain: MSAQPVDIQIFGRSLRVNCPPDQRDALNQAADDLNQRLQDLKERTRVTNTEQLVFIAALNISYELAQEKAKTRDYAASMEQRIRMLQQTIEQALLEQGRITEKTNQNFE
notes: ZapA, Escherichia coli; cloned in pET15b at NdeI/BamHI; Removal of the His tag is told only for PaFtsZ; also called EcZapA; source: E. coli BL21 (pET15b), purified (Talon column)
binding result [3]: binds
binding result [4]: binds

B4: ZapA from Pseudomonas aeruginosa (natural protein, P. aeruginosa, UniProt Q9HTW3 1-104, looked up)
chain: MSQSNTLTVQILDKEYCINCPDDERANLESAARYLDGKMREIRSSGKVIGADRVAVMAALNITHDLLHRKERLDQESSSTRERVRELLDRVDRALANPADAGEA
notes: ZapA, Pseudomonas aeruginosa; cloned in pET15b at NdeI/BamHI; Removal of the His tag is told only for PaFtsZ; also called PaZapA; source: E. coli BL21 (pET15b), purified (Talon column)
binding result [5]: binds
